Laboratory results reported in US9012606B2, “In vivo half life increased fusion protein or peptide maintained by sustained in vivo release, and method for increasng in vivo half-life using same” (Alteogen, Inc., priority 2009, dated 2015).
Numbering of substitutions follows the chain as printed. Numbers in names are those of the source.

Columns and labels:
[1] = Weweres et al. 1987; cited from earlier work
[2] = Pharmacokinetics of IFN-α and IFN-α/alpha-1 antitrypsin monovariant fusion (serum ELISA); type: in vivo; conditions: Sprague-Dawley rats, subcutaneous, 60 μg/kg (Intermax alpha control)
Description: The enzyme immunoassay of human interferon alpha (IFN-α) and human interferon alpha/alpha-1 antitrypsin monovariant fusion was conducted with Human IFN-α Matched Antibody Pairs for ELISA (bender Medsystems, Austria). The IFN-α antibody (10 μg/ml) was allowed to adhere to 96-well plates and blocked as described in Test Example 1-1. A dilution of the sample was reacted with the antibody at room temperature for 2 hrs with shaking. An anti-IFN-α-HRP conjugate was plated in an amount of 50 μL/well and reacted with the antibody at room temperature for 2 hrs with shaking. Subsequent processes were conducted in the same manner as in Test Example 1-1.
Sprague-Dawley rats were used as experimental animals and five rats were assigned to each test group. The human interferon alpha/alpha-1 antitrypsin monovariant fusion [T502: α1AT(P357N)/IFN-α] prepared in Example 4 was subcutaneously injected at a dose of 200 μg/kg into Sprague-Dawley rats of one test group, 0, 0.33, 1, 2, 5, 8, 12, 18, 24, 30, 48, 72 and 96 hrs after which blood samples were taken, and centrifuged to obtain sera. […] Each sample was analyzed in the same manner as the enzyme immunoassay of Test Example 1.

[3] = Pharmacokinetics of hGH and hGH/alpha-1 antitrypsin fusions (serum ELISA); type: in vivo; conditions: Sprague-Dawley rats, subcutaneous, 200 μg/kg (Scitropin control)
Description: An anti-human growth hormone monoclonal antibody (Medix Biochemica, Finland) was diluted to a concentration of 1-5 μg/mL in phosphate buffered saline (PBS) and the dilution was aliquoted in an amount of 100 μL/well onto a 96-well plate (Nunc, Denmark) and incubated at room temperature for 15-18 hrs. After the antibody remaining suspended was removed, PBS containing 1% bovine serum albumin was plated in an amount of 250 μL/well and incubated at room temperature for 2 hours. The plates were washed three times with wash buffer (0.05% Tween 20, PBS) and the solution was aspirated. Samples were diluted in PBS containing 1% bovine serum albumin and added to the 96-well plates before incubation at room temperature for 2 hrs. The 96-well plates were washed five times with wash buffer and 100 μL of the human growth hormone monoclonal antibody-biotin conjugate prepared using sulfo-NHS-biotin (Pierce biotechnology, U.S.A.) was added to each well of the 96-well plates and then incubated at room temperature for 2 hrs. The plates were washed five times with wash buffer and incubated with streptabidin-HRP at room temperature for 30 min. Again, the plates were washed five times with wash buffer and reacted with 100 μL of a mixture of TMB (3,3′,5,5′-tetramethylbenzidine) and hydrogen peroxide per well for 30 min in a dark place. To each well was added 100 μL of 1 M sulfuric acid to terminate the reaction, followed by measuring absorbance at 450 nm on a VersaMax microplate reader (Molecular Device, U.S.A.). Values for each sample were calculated by regression analysis after a standard curve was plotted for a reference material.
Sprague-Dawley rats were used as experimental animals and three of them were administered with human growth hormone while five rats were assigned to each of the fusion-administered groups. The human growth hormone/alpha-1 antitrypsin fusion [T109wt: α1AT/hGH], the human growth hormone/alpha-1 antitrypsin monovariant fusion [T109: α1AT(P357N)/hGH], and the human growth hormone/alpha-1 antitrypsin divariant fusion [T109T: α1AT(P357N, S359T)/hGH], all prepared in Examples 1-3, were subcutaneously injected at a dose of 720 μg/kg into respective groups of Sprague-Dawley rats. The samples were diluted in PBS before injection. Blood samples were taken at 0, 1, 2, 4, 8, 12, 16, 24, 30 and 48 hrs after the injection, and centrifuged to obtain sera. For a control, Scitropin (SciGen, Singapore), a kind of human growth hormone, was subcutaneously injected at a dose of 200 μg/kg. PBS was used as a diluent. Blood samples were taken at 0, 0.33, 1, 2, 5, 8, 12, 18, 24, 30 and 48 hrs after the injection, and centrifuged to obtain sera. Each sample was analyzed in the same manner as the enzyme immunoassay of Test Example 1.

[4] = In vivo activity: body weight change in pituitary gland-removed rats; parameters: species or system Sprague-Dawley rats; conditions: subcutaneous 5 μg per rat every day (Eutropin), day 7
Description: Pituitary gland-removed Sprague-Dawley rats were used as experimental animals and divided into three groups of seven. To the hypophysectomyzed Sprague-Dawley rats, the human growth hormone/alpha-1 antitrypsin monovariant fusion [T109: α1AT(P357N)/hGH] prepared in Example 2 and human growth hormone (Eutropin, LG Life Sciences Ltd, Korea) were subcutaneously injected at doses of 18 μg and 5 μg per rat, respectively, every day. For a control, PBS was used. The rats were weighed every day after being injected.

leucocytes = experiment: In vivo activity: changes in leucocyte level; conditions: Sprague-Dawley rats
Description: Sprague-Dawley rats were used as experimental animals and divided into five groups of five each. To the Sprague-Dawley rats, the granulocyte colony-stimulating factor/alpha-1 antitrypsin divariant fusion [T602S: α1AT(P357N, C232S)/G-CSF] prepared in Example 5 was subcutaneously injected at doses of 340 μg/kg and 1,700 μg/kg. To another groups of rats, the granulocyte colony-stimulating factor/alpha-1 antitrypsin trivariant fusion [T602ST: α1AT(P357N, C232S, S359T)/G-CSF] prepared in Example 6 and the granulocyte colony-stimulating factor Filgrastim (Gracin, Jell Pharmaceutical Co. Ltd. Korea) were subcutaneously injected at doses of 1,700 μg/kg and 100 μg/kg, respectively. Blood samples were taken from the tail on 3 days before experiment and on 1, 2, 3, 4 and 5 days after the injection and leucocytes were counted using Hematology Analyzer (Pentra 120).

[5] = Pharmacokinetics of G-CSF and G-CSF/alpha-1 antitrypsin variant fusions (serum ELISA); type: in vivo; conditions: Sprague-Dawley rats, subcutaneous
Description: The same procedure as in Test Example 1 was repeated with the exception that an anti-granulocyte colony-stimulating factor (G-CSF) monoclonal antibody (RND systems, U.S.A.), instead of the anti-human growth hormone antibody, was diluted to a concentration of 1-5 μg/mL and granulocyte colony-stimulating factor polyclonal antibodies-biotin conjugate (RND systems, U.S.A.), instead of the human growth hormone monoclonal antibody-biotin conjugate, was used.
Sprague-Dawley rats were used as experimental animals and three of them were administered with granulocyte colony-stimulating factor while five rats were assigned to each of the fusion-administered groups. The granulocyte colony-stimulating factor/alpha-1 antitrypsin divariant fusion [T602S: α1AT(P357N, C232S)/G-CSF], and granulocyte colony-stimulating factor/alpha-1 antitrypsin trivariant fusion [T602ST: α1AT(P357N, C232S, S359T)/G-CSF], all prepared in Examples 5-6, were subcutaneously injected at a dose of 340 μg/kg into respective groups of Sprague-Dawley rats. Blood samples were taken at 0, 1, 2, 4, 8, 12, 16, 24, 30, and 48 hrs after the injection, and centrifuged to obtain sera. For a control, Filgrastim (Gracin, Jeil Pharmaceutical Co. Ltd. Korea), a commercially available granulocyte colony-stimulating factor, was subcutaneously injected at a dose of 100 μg/kg. Blood samples were taken at 0, 1, 2, 4, 8, 12, 18, 24, 30 and 48 hrs after the injection, and centrifuged to obtain sera. Each sample was analyzed in the same manner as the enzyme immunoassay of Test Example 1.

[6] = tested on: Murine myeloblastic NFS-60 cells; experiment: In vitro activity in NFS-60 cells (MTS method); type: cell-based
Description: The rat lymphoma cell line (NB2 cell) was maintained in RPMI1640 supplemented with 10% HS (Horse serum), 10% FBS, 2-mercaptoethanol and antibiotics at 37° C. under a 5% CO2 condition. For 24 hrs before experiment, NB2 cells were incubated in RPMI 1640 supplemented with 10% HS. Thereafter, the NB2 cells were washed once with 1×DPBS (Dulbecco's Phosphate Buffered Saline), and plated at a density of 2×10^4 cells/100 μL/well in 5% HS-supplemented RPMI 1640 in 96-well plates (Corning, U.S.A.) with final volume of 100 μL. A series of concentrations of the samples were added in an amount of 20 μL to each well of the 96-well plates, followed by incubation at 37° C. for 48 hrs under a 5% CO2 condition. Subsequently, 20 μL of an MTS solution (Promega, U.S.A.) was added to each well of the 96-well plates and allowed to react at 37° C. for 3 hrs under a 5% CO2 condition. The reaction was terminated by adding 20 μL of 10% SDS (sodium dodecyl sulfate) to each well. Absorbance was measured at 490 nm using a VersaMax microplate reader (Molecular Device, U.S.A.).
Murine myeloblastic NFS-60 cells were incubated in RPMI 1640 supplemented with 10% FBS, mouse IL-3 and antibiotics at 37° C. under a 5% CO2 condition. The absorbance of the cells was measured at 490 nm in the same manner as in Test Example 4-1.

In the case of alpha-1 antitrypsin, the in vivo half-life [1] is given as 120 to 140 h.

With “human interferon alpha [reference compound]” the Tmax [2] was 1.4 h and the “serum half-life (t1/2)” value [2] was 3.4 h.

With “human growth hormone [reference compound]” the Tmax [3] was 1 h, the “serum half-life (t1/2)” value [3] was 0.8 h and the weight gain [4] was “about 10.2%”.

B1: Filgrastim (protein, chains of the INN, looked up)
chain: MTPLGPASSLPQSFLLKCLEQVRKIQGDGAALQEKLCATYKLCHPEELVLLGHSLGIPWAPLSSCPSQALQLAGCLSQLHSGLFLYQGLLQALEGISPELGPTLDTLQLDVADFATTIWQQMEELGMAPALQPTQGAMPAFASAFQRRAGGVLVASHLQSFLEVSYRVLRHLAQP
notes: Filgrastim (Gracin, Jeil Pharmaceutical), a commercially available granulocyte colony-stimulating factor
In the case of B1, the “leucocyte count time course” value (leucocytes; subcutaneous, 100 μg/kg) is reported as “peak level at Day 1 and then decrease to the base line from Day 2”, the Tmax ([5]; 100 μg/kg (Filgrastim control)) is reported as 1.8 h and the “serum half-life (t1/2)” value ([5]; 100 μg/kg (Filgrastim control)) is reported as 1.8 h.

B2: granulocyte colony-stimulating factor/alpha-1 antitrypsin divariant fusion (protein)
chain: EDPQGDAAQKTDTSHHDQDHPTFNKITPNLAEFAFSLYRQLAHQSNSTNIFFSPVSIATAFAMLSLGTKADTHDEILEGLNFNLTEIPEAQIHEGFQELLRTLNQPDSQLQLTTGNGLFLSEGLKLVDKFLEDVKKLYHSEAFTVNFGDTEEAKKQINDYVEKGTQGKIVDLVKELDRDTVFALVNYIFFKGKWERPFEVKDTEEEDFHVDQVTTVKVPMMKRLGMFNIQHSKKLSSWVLLMKYLGNATAIFFLPDEGKLQHLENELTHDIITKFLENEDRRSASLHLPKLSITGTYDLKSVLGQLGITKVFSNGADLSGVTEEAPLKLSKAVHKAVLTIDEKGTEAAGAMFLEAINMSIPPEVKFNKPFVFLMIDQNTKSPLFMGKVVNPTQKGGGGSTPLGPASSLPQSFLLKCLEQVRKIQGDGAALQEKLCATYKLCHPEELVLLGHSLGIPWAPLSSCPSQALQLAGCLSQLHSGLFLYQGLLQALEGISPELGPTLDTLQLDVADFATTIWQQMEELGMAPALQPTQGAMPAFASAFQRRAGGVLVASHLQSFLEVSYRVLRHLAQP
modifications: T602S [alpha-1AT(P357N, C232S)/G-CSF]
notes: G-CSF fused to C-terminus of alpha-1 antitrypsin divariant 2 P357N, C232S
In the case of B2, the “leucocyte count time course” value (leucocytes; subcutaneous, 340 μg/kg) is reported as “peak level on Day 2 and then decrease from Day 3”, the “leucocyte count time course” value (leucocytes; subcutaneous, 1,700 μg/kg) is reported as “remained high until Day 3 and started to decrease on Day 4” and the EC50 [6] is reported as 0.0781 nM. The Tmax ([5]; 340 μg/kg) was 13.6 h and the “serum half-life (t1/2)” value ([5]; 340 μg/kg) was 5.1 h.

B3: granulocyte colony-stimulating factor/alpha-1 antitrypsin trivariant fusion (protein)
chain: B2 chain with S359T
modifications: T602ST [alpha-1AT(P357N, C232S, S359T)/G-CSF]
notes: G-CSF fused to C-terminus of alpha-1 antitrypsin trivariant P357N, C232S, S359T
For B3, the “leucocyte count time course” value (leucocytes; subcutaneous, 1,700 μg/kg) was “remained high until Day 3 and started to decrease on Day 4”, the EC50 [6] was 0.0976 nM and the Tmax ([5]; 340 μg/kg) was 16 h. For the same molecule, the “serum half-life (t1/2)” value ([5]; 340 μg/kg) was 4.5 h.
